From publication PMC7343536 (Cell, 2017)
Where two headings read alike, the source gives them in different places. No end group written: not given here.

What was measured:
[1] = target: T1, Ssb2 (purified recombinant) (S. cerevisiae, UniProt P40150 1-613); assay: stopped-flow fluorescence, peptide release
[2] = target: T1, Ssb2 (purified recombinant); assay: stopped-flow fluorescence, peptide release; remark: listed apart in the source

T1 sequence (P40150 whole entry): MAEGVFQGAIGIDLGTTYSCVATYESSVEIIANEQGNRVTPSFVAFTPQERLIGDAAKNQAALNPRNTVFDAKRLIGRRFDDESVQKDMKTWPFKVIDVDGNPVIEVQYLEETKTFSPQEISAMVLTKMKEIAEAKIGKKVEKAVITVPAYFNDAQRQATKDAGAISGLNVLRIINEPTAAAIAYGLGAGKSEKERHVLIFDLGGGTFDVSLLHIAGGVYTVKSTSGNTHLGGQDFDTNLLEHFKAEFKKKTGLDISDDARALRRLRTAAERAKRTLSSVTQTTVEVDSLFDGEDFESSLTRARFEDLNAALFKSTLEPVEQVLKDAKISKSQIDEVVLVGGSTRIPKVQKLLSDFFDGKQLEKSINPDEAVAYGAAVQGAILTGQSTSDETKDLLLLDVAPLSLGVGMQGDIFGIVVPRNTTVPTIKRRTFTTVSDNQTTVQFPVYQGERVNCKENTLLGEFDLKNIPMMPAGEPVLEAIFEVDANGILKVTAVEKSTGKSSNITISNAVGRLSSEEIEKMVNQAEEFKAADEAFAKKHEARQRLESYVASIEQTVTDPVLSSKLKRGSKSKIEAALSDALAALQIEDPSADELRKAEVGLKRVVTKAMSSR

Binder: QRKLFFNLRKTKQC (not fully specified (residue 14); also: labeled with IAANS, site not given here) [IAANS labeled peptide substrate σ32-Q132-Q144-C]
- half-life of the complex [1]: 7.7 ± 6.7 min
- half-life of the complex [2]: 3.9 ± 0.2 h
